In patent publication US8029979B2, “Method for determining the substrate specificity of an enzyme” (JPT Peptide Technologies GmbH, priority 2001, dated 2011):
BA1 = not defined here

Key:
protein kinase A [1] = target: T1, protein kinase A (Bos taurus, UniProt P00517); assay: Incubation of various modified surfaces (glass, cellulose, polypropylene) with protein kinase A (FIG. 2, Example 30); format: biochemical; settings: protein kinase A 2 U/mL, 30 minutes at 25° C.
T1 construct: purchased Sigma P26452 as printed
Protocol: FIG. 2. The peptide Leu-Arg-Arg-Ala-Ser-Leu-Gly-NH2 and the control peptide […], each modified at the N-terminus with the dipeptide cysteinyl-β-alanine, were coupled to a maleinimido-functionalised surface by a Michael addition (Example 1; maleinimidobutyryl-β-alanine-functionalised cellulose as well as maleinimidobutyryl-β-alanine-functionalised, modified polypropylene membranes). The surfaces thus modified were first pre-incubated for 10 minutes using 10 mL of 100 μM ATP solution in 50 mM of sodium phosphate buffer pH 7.5. […] (Example 30). The phosphorylation of the corresponding peptides was detected using a FUJIFILM PhosphorImager. The signal intensity of the respective spot is given below the figures. […] In the case of the modified glass surfaces, however, the signal for the substrate amino acid sequence is a factor of 4-5 larger than the signal for the corresponding control amino acid sequence. […]
After drying the glass surface the quantity of radioactive phosphate incorporated in the glass-surface-bound peptides was determined using a PhosphorImager system (FLA-3000, FUJIFILM) (see FIG. 2).

protein kinase A [2] = target: T1, protein kinase A; assay: Incubation of modified glass surface with protein kinase A under cover glass (FIG. 5, Example 26); format: biochemical; settings: protein kinase A 10 U/mL, 30 min at 25° C.
Protocol: FIG. 3. The peptide Leu-Arg-Arg-Ala-Ser-Leu-Gly-NH2, modified at the N-terminus with the dipeptide cysteinyl-β-alanine, was coupled to maleinimido-functionalised surfaces by a Michael addition (maleinimido-functionalised glass surface, Sigma, Silane-Prep™, S4651; as well as maleinimidobutyryl-β-alanine-functionalised, modified polypropylene membranes). The modified glass surfaces were first pre-incubated for 10 minutes using 20 mL of 100 μM ATP solution in 50 mM of sodium phosphate buffer pH 7.5. […] (Example 31). The phosphorylation of the corresponding peptides was detected using a FUJIFILM PhosphorImager. The signal intensity of the respective spot is given below the figures. […] FIG. 4. The control peptide Leu-Arg-Arg-Ala-Ala-Leu-Gly-NH2, the peptide […] and the synthesis raw product […], each modified at the N-terminus with the dipeptide cysteinyl-β-alanine, were coupled to a maleinimido-functionalised glass surface by a Michael addition (Example 1). […] After incubation for 30 min at 25° C. the phosphorylation of the corresponding peptides was detected using a FUJIFILM PhosphorImager. […] After incubation for 30 min at 25° C. the phosphorylation of the corresponding peptides was detected using a FUJIFILM PhosphorImager. […]

## Cys-BA1-Leu-Arg-Arg-Ala-Ser-Leu-Gly-NH2 ({Cys-BA1}-LRRASLG-NH2; reading uncertain; also: printed as Cys-BA1-Leu-Arg-Arg-Ala-Ser-Leu-Gly-NH2) [compound 85]
Protein kinase A [1]; modified cellulose or polypropylene surfaces
  kinase-mediated phosphorylation signal on porous surfaces: only non-specific binding of ATP or kinase to the peptides is measured
Protein kinase A [1]; modified glass surfaces
  signal for the substrate amino acid sequence larger than the signal for the corresponding control amino acid sequence: 4-5 factor
Protein kinase A [2]
  signal intensity for the substrate amino acid sequence higher than that for the control product: 800%
